Data published in paper PMC5814804.
Like-named read-outs stand apart in the source and are kept apart here.

Experiments:
[1] = target: Thermotoga maritima TsaB2D2 complex (Thermotoga maritima) (UniProt Q9WZX7); experiment: SEC
[2] = target: Thermotoga maritima TsaB2D2 complex (Thermotoga maritima) (UniProt Q9WZX7); experiment: ITC
[3] = target: Thermotoga maritima TsaB2D2 complex (Thermotoga maritima) (UniProt Q9WZX7); experiment: SEC; remark: listed apart in the source
[4] = target: Thermotoga maritima TsaB2D2 complex (Thermotoga maritima) (UniProt Q9WZX7); experiment: ITC; remark: listed apart in the source
[5] = target: Thermotoga maritima TsaB2D2 complex (Thermotoga maritima) (UniProt Q9WZX7); experiment: ITC; remark: listed apart in the source

Chain of Thermotoga maritima TsaB2D2 complex (Thermotoga maritima) (Q9WZX7 whole entry, chain 1 of 2): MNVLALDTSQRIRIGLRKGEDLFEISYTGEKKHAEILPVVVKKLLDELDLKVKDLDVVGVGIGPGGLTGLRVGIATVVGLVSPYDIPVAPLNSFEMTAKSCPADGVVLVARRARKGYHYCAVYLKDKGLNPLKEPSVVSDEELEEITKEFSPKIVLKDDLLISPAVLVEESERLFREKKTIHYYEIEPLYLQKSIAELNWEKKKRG
Chain of Thermotoga maritima TsaB2D2 complex (Thermotoga maritima) (Q9WXZ2 whole entry, chain 2 of 2, further chain): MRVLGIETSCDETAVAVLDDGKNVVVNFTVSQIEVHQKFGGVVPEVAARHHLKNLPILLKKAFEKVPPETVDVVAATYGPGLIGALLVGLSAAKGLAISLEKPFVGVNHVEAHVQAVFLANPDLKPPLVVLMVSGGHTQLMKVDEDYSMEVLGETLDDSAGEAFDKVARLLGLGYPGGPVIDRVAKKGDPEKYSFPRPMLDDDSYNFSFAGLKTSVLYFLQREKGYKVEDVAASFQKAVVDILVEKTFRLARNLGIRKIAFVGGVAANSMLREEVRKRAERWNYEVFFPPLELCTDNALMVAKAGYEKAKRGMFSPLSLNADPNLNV

Substance	stoichiometry N (TsaE per TsaB2D2) [1]	Kd [2]	dH [2]	stoichiometry N [2]	stoichiometry N (TsaE per TsaB2D2) [3]	Kd [4]	dH [4]	stoichiometry N [4]	Kd [5]	dH [5]	stoichiometry N [5]
Thermotoga maritima TsaE (natural protein)	1	0.34 µM	31.1 kJ/mol	2.72	2	1.1 µM	6.44 kJ/mol	2.16	1.3 µM	49.8 kJ/mol	2.11
Thermotoga maritima TsaE E108A mutant (natural protein)		2.4 µM	49.8 kJ/mol	1.91					1.1 µM	38.9 kJ/mol	
Thermotoga maritima TsaE T42A mutant (natural protein)		1.1 µM	43.3 kJ/mol	2					1.4 µM	33.5 kJ/mol	
